Results from IntAct's records for PubMed 19804848.

B1: Syntaxin-binding protein 2 (Homo sapiens), Q15833 (parent)
chain: MAPSGLKAVVGEKILSGVIRSVKKDGEWKVLIMDHPSMRILSSCCKMSDILAEGITIVEDINKRREPIPSLEAIYLLSPTEKSVQALIKDFQGTPTFTYKAAHIFFTDTCPEPLFSELGRSRLAKVVKTLKEIHLAFLPYEAQVFSLDAPHSTYNLYCPFRAEERTRQLEVLAQQIATLCATLQEYPAIRYRKGPEDTAQLAHAVLAKLNAFKADTPSLGEGPEKTRSQLLIMDRAADPVSPLLHELTFQAMAYDLLDIEQDTYRYETTGLSEAREKAVLLDEDDDLWVELRHMHIADVSKKVTELLRTFCESKRLTTDKANIKDLSQILKKMPQYQKELNKYSTHLHLADDCMKHFKGSVEKLCSVEQDLAMGSDAEGEKIKDSMKLIVPVLLDAAVPAYDKIRVLLLYILLRNGVSEENLAKLIQHANVQAHSSLIRNLEQLGGTVTNPGGSGTSSRLEPRERMEPTYQLSRWTPVIKDVMEDAVEDRLDRNLWPFVSDPAPTASSQAAVSARFGHWHKNKAGIEARAGPRLIVYVMGGVAMSEMRAAYEVTRATEGKWEVLIGSSHILTPTRFLDDLKALDKKLEDIALP
partner: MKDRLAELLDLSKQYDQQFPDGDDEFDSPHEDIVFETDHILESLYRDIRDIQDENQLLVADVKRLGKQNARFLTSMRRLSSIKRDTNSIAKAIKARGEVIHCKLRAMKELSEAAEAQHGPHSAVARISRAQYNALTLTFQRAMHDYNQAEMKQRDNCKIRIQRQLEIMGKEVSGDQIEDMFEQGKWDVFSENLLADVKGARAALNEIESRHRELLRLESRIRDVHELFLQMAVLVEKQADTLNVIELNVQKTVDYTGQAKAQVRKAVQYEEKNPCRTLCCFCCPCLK

Variants of: B1
Conditions: with stx11_human STX11, O75558

Variant | effect of a mutation on the interaction
P477L | disrupting interaction strength
R292H | disrupting interaction strength
R405W | disrupting interaction strength
R405E | disrupting interaction strength
